# According to the supplement of paper PMC10126150:
# ± gives the standard deviation of the averaged measurements.
# System: ATP
# Experiment: switch fluorescence ratio, 500 uM ATP over buffer (Cy3 cluster intensity, sum of 5 cycles each) (fold (ratio)); higher = stronger signal-on switching upon ATP binding; sequences stand for … in TCGTCGGCAGCGTCAGATGTGTATAAGAGACAGTTTTTTTTTTTTTTTTTTTTTTTTT…TC
# Conditions: aptamer strand: ATP DNA aptamer (quencher-CACCTGGGGGAGTATTGCGGAGGAAGG + anchor), 100 nM annealed; ATP concentration: 500 uM
# Summary of the method: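 Per cluster, summed Cy3 intensity from the target cycles was divided by that from the buffer cycles to give the fluorescence ratio, then averaged per switch-domain sequence. Clusters outside 100-1000 RFU were excluded. The Cy3-labelled switching-strand clusters, on a modified Illumina MiSeq flow-cell, were annealed to 100 nM quencher-labelled ATP aptamer and imaged in selection buffer, then after 15 min with 500 uM ATP at 22 °C, for five cycles with NaOH stripping and re-annealing between them.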
# 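Further: ATP exposure 15 min at 22 °C before imaging.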
row,Sequence,switch fluorescence ratio
1,GGGGTGGGAG,1.01 ± 0.041
2,CTTATAGCGC,1.007 ± 0.0066
3,GAAGTTGCGA,0.9835 ± 0.0091
4,TGATTGTTTG,1.01 ± 0.034
5,CCACGGCAGG,1.229 ± 0.011
6,GAATAGCATA,1.05 ± 0.018
7,TATTTTGTAT,1 ± 0.019
8,TCCAGCGCAC,3.81 ± 1.1
9,GCCGGATTGG,0.956 ± 0.021
10,TCCCCTGTGT,1.86 ± 0.54
11,CACACGGTTC,1.02 ± 0.028
12,GTAGTATTAG,1.032 ± 0.0043
13,TGCGGGTGTG,1.03 ± 0.021
14,AGATTGGGGT,1.01 ± 0.017
15,AGGGTGGAGC,1.07 ± 0.092
16,CATGCTGCGG,0.999 ± 0.026
17,AGCTGACTAT,1.06 ± 0.11
18,GGCTGCACGG,1.013 ± 0.01
19,TTTCGGTCGG,1.04 ± 0.046
20,AGTTTTCATT,1 ± 0.049
21,AAAATAGAAC,1.01 ± 0.041
22,TAACAGTGTG,1.04 ± 0.046
23,ATTATTGGCG,1.01 ± 0.042
24,TTATGGGATT,0.993 ± 0.019
25,TTCGGGGCAT,1.05 ± 0.097

row,Sequence,switch fluorescence ratio
1,TCGCCTGGGG,1.1 ± 0.0046
2,TGGTATTATT,0.998 ± 0.024
3,TTTAGCAATG,1.64 ± 0.34
4,GCTGATTTAT,0.982 ± 0.018
5,ATATTTTGGC,1.04 ± 0.034
6,GTTTCCGTTT,0.973 ± 0.017
7,GATGTATGTA,0.973 ± 0.021
8,TCTATTGGCT,1.016 ± 0.0049
9,GCGTAACAGT,0.964 ± 0.045
10,TTGTGGAGAA,1.04 ± 0.072
11,AAAATGCGCT,0.975 ± 0.013
12,GGTTGTGGGG,0.998 ± 0.035
13,GGCATTATTT,1.02 ± 0.023
14,CGTTCATTTG,0.993 ± 0.028
15,CGTCCGGGGT,1.48 ± 0.62
16,CGCTATATGG,1.32 ± 0.047
17,AGGCCAGGGG,1.06 ± 0.1
18,AGTTTTTTTG,0.99 ± 0.017
19,TTTAGATCAG,1.03 ± 0.013
20,TCATGGGTTT,0.997 ± 0.04
21,GAGGAAAAAT,1.062 ± 0.0021
22,ATTATTGGGG,0.9642 ± 0.0086
23,TTAAAGGATT,1.01 ± 0.052
24,GCGTTCAGGC,0.994 ± 0.063
25,TGGACGTGGG,0.98 ± 0.052

row,Sequence,switch fluorescence ratio
1,TCGGATAAGA,0.995 ± 0.048
2,AGTAGCCTGA,1.01 ± 0.013
3,TTTAGATTGG,0.9945 ± 0.0086
4,GCGTTAGGCG,1.01 ± 0.044
5,CCTACTTGGC,1.16 ± 0.05
6,GATGGCTGTG,1.021 ± 0.01
7,AAAGAGGGGG,1.03 ± 0.049
8,TTAAGTACG,1.22 ± 0.09
9,CGGTGCTGGG,0.999 ± 0.04
10,TTTCAGTACA,0.988 ± 0.01
11,TCGTAGGTGG,1.02 ± 0.063
12,TTAAAGGGAT,1.1 ± 0.16
13,GATTGGCACC,0.965 ± 0.014
14,TGCACTAGAA,1.01 ± 0.017
15,TATTCGGCTG,0.997 ± 0.029
16,GGGGGACACT,1.01 ± 0.022
17,TGTTTCGTTT,1 ± 0.055
18,TGGACGGGTT,1.02 ± 0.014
19,CCCAGTAGCG,1.03 ± 0.017
20,TGATCGGGCA,0.956 ± 0.031
21,AGGTTAGTGG,1.015 ± 0.01
22,AGTATTAGAG,0.983 ± 0.039
23,AGTAAATGGA,0.9854 ± 0.0055
24,TTTGCGCCGT,1.02 ± 0.058
25,TTTGTAGGGT,0.971 ± 0.011

row,Sequence,switch fluorescence ratio
1,CCGTTTTAGC,1.12 ± 0.12
2,GGAGTGAGCG,0.995 ± 0.036
3,TTGCTTTGGG,1.01 ± 0.018
4,AATGTTATTG,0.99833 ± 0.00099
5,GATTGTGACG,1.06 ± 0.057
6,TTGTATGTAC,1.22 ± 0.13
7,TTTCATAGTC,1 ± 0.025
8,GATTATTTGA,0.992 ± 0.061
9,TGCGCCAACT,1.06 ± 0.011
10,GTTTTTGAGG,0.977 ± 0.028
11,TCGGTAAATG,1.04 ± 0.018
12,TCAAAAGTCG,1.03 ± 0.012
13,TGGTGAAAGT,0.982 ± 0.025
14,TCAGTTGACT,1.011 ± 0.0055
15,AGGAGAGGGT,0.967 ± 0.013
16,GAAGGAGGGC,0.995 ± 0.085
17,TCTTAGGTTG,1.028 ± 0.0062
18,AAATTAAGGG,1.02 ± 0.03
19,AAGTTTATTT,0.973 ± 0.051
20,ATCCTATTTG,1.0056 ± 0.0008
21,TGATTGTGTA,0.987 ± 0.048
22,CAGCTTGGGT,0.999 ± 0.04
23,ATTAGACGGA,1.058 ± 0.0045
24,GTAAAAGAAG,0.964 ± 0.02
25,TTATATTTAG,0.988 ± 0.011
